What was measured:
purified protein [1] = substrate: Cc1cn([C@H]2C[C@H](O)[C@@H](COP(=O)(O)OP(=O)(O)OP(=O)(O)O)O2)c(=O)[nH]c1=O; test: purified protein; type: biochemical, Dugesia ryukyuensis; conditions: 5 mM MgCl2, 100 mM KCl, 0.25 mM Bicine, pH 8.2, 100 µM nucleotide, 4–6 µM enzyme, n = 3
purified protein [2] = substrate: O=c1ccn([C@H]2C[C@H](O)[C@@H](COP(=O)(O)OP(=O)(O)OP(=O)(O)O)O2)c(=O)[nH]1; test: purified protein; type: biochemical, Dugesia ryukyuensis; conditions: 5 mM MgCl2, 100 mM KCl, 0.25 mM Bicine, pH 8.2, 25 °C, 10 µM dUTP, n = 7, kcat assumes three active sites per trimer, 25.0 °C

B1: Dr-dUTPase (Dugesia ryukyuensis; R66K) (protein)
chain: MSALKVLRFKKLSENATVPSRGSVLAAGFDLCSAENCVIPARGKQLVKTDIQISLPEGCYGRVAPKSGLALKHFIDVGAGVIDQDYRGNVGIVMFNFSENEFPISKGDRIAQLICERIYTPELLECESLDETERGEGGYGSTGINNSSQKNGH
notes: full-length 153 aa ORF, codon-optimized, pET-15b, E. coli BL21(DE3); His-tag cut by thrombin, N-terminal GSH left; 156 aa, 16,807 Da; R66K (G197A) removes internal thrombin site
Purified protein [1]
  Km: 1.1 × 10^2 ± 7.2 μM
  kcat: 1.4 ± 0.3 s⁻¹
  kcat/Km: 13000 ± 2800 M⁻¹ s⁻¹
Purified protein [2]
  Km: 4.0 ± 0.4 µM
  kcat: 34 s⁻¹
  kcat/Km: 8.5e+06 ± 1.1e+06 M⁻¹ s⁻¹

Reference: paper PMC6431053, “Enzyme kinetics of dUTPase from the planarian Dugesia ryukyuensis” (BMC Research Notes, 2019)
